Experimental data from US20250197491A1 (published 2025).

Each binder was assayed against Human full length LILRB1 (UniProt Q8NHL6 24-650) (assay: flow cytometry, HEK293 cells overexpressing LILRB1).
Chain of Human full length LILRB1 (Q8NHL6 24-650): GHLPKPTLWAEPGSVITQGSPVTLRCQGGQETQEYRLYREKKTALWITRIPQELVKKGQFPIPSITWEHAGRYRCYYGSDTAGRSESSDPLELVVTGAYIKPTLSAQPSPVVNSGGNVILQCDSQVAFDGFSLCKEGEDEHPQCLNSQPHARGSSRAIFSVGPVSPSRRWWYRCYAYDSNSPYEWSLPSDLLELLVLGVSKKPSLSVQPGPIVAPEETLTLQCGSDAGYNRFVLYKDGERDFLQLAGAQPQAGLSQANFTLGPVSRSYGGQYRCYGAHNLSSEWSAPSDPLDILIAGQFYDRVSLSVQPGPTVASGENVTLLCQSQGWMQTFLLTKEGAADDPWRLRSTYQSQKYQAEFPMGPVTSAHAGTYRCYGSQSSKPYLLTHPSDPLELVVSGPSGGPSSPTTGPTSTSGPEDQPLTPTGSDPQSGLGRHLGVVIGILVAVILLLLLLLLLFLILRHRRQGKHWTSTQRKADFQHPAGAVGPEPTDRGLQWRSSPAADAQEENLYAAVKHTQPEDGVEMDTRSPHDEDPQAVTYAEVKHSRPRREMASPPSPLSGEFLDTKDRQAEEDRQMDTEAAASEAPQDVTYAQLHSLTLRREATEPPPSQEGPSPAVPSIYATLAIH

| EC50 | Binder |
| --- | --- |
| 2.24 nM | Antibody 5 (antibody, V domains shown) VH: QVQLVESGGGLVKPGGSLRLSCAASGFTFSDYYMTWIRQAPGKGLEWVSYISISGITRYYADSVKGRFTISRDNAKNSLYLQMNSLRAEDTAVYYCARDQTGYFDYWGQGTLVTVSS VL: DIVMTQSPATLSVSPGEKTTLSCRASQSFSSNLAWYQQKPGQAPRLLIYGASTRATGIPARFSGSGSGTEFTLTISSLQSEDFAVYYCQQYINWPHTFGQGTKVEIK |
| 0.52 nM | Antibody 2 (antibody, V domains shown) VH: QVQLVESGGDLVKPGGSLRLSCAASGFTFRDYYMSWIRQAPGKGLEWVSYISPSGSTIFYADSVKGRFTISRDNAKNSLYLQMNSLRAEDTAVYYCAKDRVRLFDYWGQGTLVTVSS VL: EIVLTQSPATLSLSPGERATLSCRASQSVSSSYLAWYQQKPGQAPRLLIYGASTRATGIPARFSGSGSGTDFTLTISRLEPEDFAVYYCQQRSNWPITFGQGTRLEIK |
| 0.37 nM | Antibody 1 (antibody, V domains shown) VH: QVQLVESGGGLVKPGGSLRLSCAASGFTFSDYYMSWIRQAPGKGLEWVSYISSSGSIKKYADSVKGRFTISRDNAKNSLYLQMNSLRGEDTAVYYCARTNWHFDYWGQGTLVTVSS VL: EIVLTQSPGTLSLSPGERATLSCRASQSVSSSYLAWYQQKPGQAPRLLIFGASTRATGIPDRFSGSGSGTDFTLTISRLEPEDVAVYYCQQYYSTPFTFGPGTKVDIK |
| 1.21 nM | Antibody 4 (antibody, V domains shown) VH: QVQLVQSGAEVKKPGASVKVSCKASGYTFTSYGISWVRQAPGQGLEWMGWISAYNGNTNYAQKLQGRVTMTTDTSTSTAYMELRSLRSDDTAVYYCARSYSGSYWWFDPWGQGTLVTVSS VL: not shown |
| 1.57 nM | Antibody 3 (antibody, V domains shown) VH: QVQLVQSGAEVKKPGASVKVSCKASGYTFTSYGISWVRQAPGQGLEWMGWISAYNGNTNYAQKLQGRVTMTTDTSTSTAYMELRSLRSDDTAVYYCARSYSGSHWWFDPWGQGTLVTVSS VL: not shown |
